The target of data set [1] is Mtb SufR_(6-229)-His6 (Mycobacterium tuberculosis H37Rv). Description: cryo-EM structure.
Data set [2] has as its target T1, SufR-R51A (Mycobacterium tuberculosis H37Rv, UniProt O53151 30-253, R75A).
T1 sequence: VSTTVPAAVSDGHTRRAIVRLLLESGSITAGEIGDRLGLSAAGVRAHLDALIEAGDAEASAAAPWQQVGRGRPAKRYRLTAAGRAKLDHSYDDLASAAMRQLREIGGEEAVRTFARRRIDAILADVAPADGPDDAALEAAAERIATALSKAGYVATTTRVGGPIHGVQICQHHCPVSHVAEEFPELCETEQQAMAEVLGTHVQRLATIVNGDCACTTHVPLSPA
Briefly: EMSA. (In general: Mobility shift assays separate free from complexed probe on a gel.)

The target in data set [3] is T2, SufR-R75M (Mycobacterium tuberculosis H37Rv, UniProt O53151 30-253, R99M).
T2 sequence: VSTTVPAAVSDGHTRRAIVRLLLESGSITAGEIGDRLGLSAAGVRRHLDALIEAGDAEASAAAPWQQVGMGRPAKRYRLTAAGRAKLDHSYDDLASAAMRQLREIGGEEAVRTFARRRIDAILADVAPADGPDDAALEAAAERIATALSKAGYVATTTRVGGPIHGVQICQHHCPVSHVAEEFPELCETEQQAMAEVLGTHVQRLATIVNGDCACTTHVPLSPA
Description: EMSA.

In data set [4] the target is T3, SufR-M1 (RRH motif mutant) (Mycobacterium tuberculosis H37Rv, UniProt O53151 30-253, R74A;R75A;H76A).
T3 sequence: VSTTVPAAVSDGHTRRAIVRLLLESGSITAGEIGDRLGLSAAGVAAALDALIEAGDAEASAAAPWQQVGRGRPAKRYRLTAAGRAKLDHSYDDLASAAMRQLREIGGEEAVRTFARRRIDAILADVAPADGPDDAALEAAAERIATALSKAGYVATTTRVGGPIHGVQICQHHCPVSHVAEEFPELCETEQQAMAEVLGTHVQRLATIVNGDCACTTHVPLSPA
Briefly: EMSA.

Data set [5] deals with T4, SufR-M2 (AT-hook mutant) (Mycobacterium tuberculosis H37Rv, UniProt O53151 30-253, R99A;R101A).
T4 sequence: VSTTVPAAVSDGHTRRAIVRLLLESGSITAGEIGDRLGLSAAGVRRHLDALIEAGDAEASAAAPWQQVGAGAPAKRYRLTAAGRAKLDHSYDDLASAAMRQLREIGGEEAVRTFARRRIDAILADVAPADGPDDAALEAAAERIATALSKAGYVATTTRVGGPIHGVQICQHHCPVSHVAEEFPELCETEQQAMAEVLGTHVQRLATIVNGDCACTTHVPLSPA
Briefly: EMSA.

Data set [6] concerns the target T5, SufR6-229-His6 (holo, [4Fe-4S]) (Mycobacterium tuberculosis H37Rv, UniProt O53151 30-253).
T5 sequence: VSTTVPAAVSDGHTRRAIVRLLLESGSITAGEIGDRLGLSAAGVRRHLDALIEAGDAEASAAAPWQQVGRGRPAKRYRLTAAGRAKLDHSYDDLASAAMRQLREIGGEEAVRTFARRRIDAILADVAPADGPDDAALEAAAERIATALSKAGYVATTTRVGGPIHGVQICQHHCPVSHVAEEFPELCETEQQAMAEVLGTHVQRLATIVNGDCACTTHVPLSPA
Description: EMSA.

For data set [7], the target named is T5, SufR6-229-His6 (holo, [4Fe-4S]). Briefly: EMSA. This is another data set of the same source.

Read-outs that look alike come from different tables or passages of the source.

One may read the stoichiometry N as a count of units in the complex or per binding partner. “Mtb SufR_(6-229)-His6 (domain or fragment)” showed a stoichiometry N in data set [1] of 2.

B1: PsufR 50-bp (dsDNA)
DNA 1: CCGATCAACGGAATTTTGTCACACTGATGTTGTGAAAATCCCGGCGGTCT
DNA 2: AGACCGCCGGGATTTTCACAACATCAGTGTGACAAAATTCCGTTGATCGG
B1: the binding result in data set [2] is reported as “no binding”; in data set [3], “binds”; in data set [4], “no binding”; in data set [5] it was “no binding”.

B2: PsufR-DM (dsDNA)
DNA 1: CCGATCAACGGAACTGTGTCACACTGATGTTGTGACAGTCCCGGCGGTCT
DNA 2: AGACCGCCGGGACTGTCACAACATCAGTGTGACACAGTTCCGTTGATCGG
Turning to B2, in data set [6], the binding result is on record as “no binding”.

B3: PsufR-PM (dsDNA)
DNA 1: CCGATCAACGGAATTTTGTCGAAGTGATGTCACTAAAATCCCGGCGGTCT
DNA 2: AGACCGCCGGGATTTTAGTGACATCACTTCGACAAAATTCCGTTGATCGG
Regarding B3, in data set [7], the binding result is “binds”.

For the origin of these results see paper doi:10.64898/2025.12.26.696629.
